Reference: patent US20210403565A1 (BIOATLA, published 2021)

T1: human CTLA4 expressed on the cell surface of CHO cells (human, UniProt P16410 36-223)
T1 construct: whole, on cells; also called CHO-huCTLA4; huCTLA4
T1 sequence (looked up): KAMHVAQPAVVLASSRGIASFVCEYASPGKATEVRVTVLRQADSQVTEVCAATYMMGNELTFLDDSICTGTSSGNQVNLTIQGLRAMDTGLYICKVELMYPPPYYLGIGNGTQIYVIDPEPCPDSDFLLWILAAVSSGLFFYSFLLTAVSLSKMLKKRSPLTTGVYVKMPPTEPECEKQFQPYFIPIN

T2: recombinant cynomolgus CTLA4 extracellular domain (cynomolgus, UniProt G7PL88 36-161)
T2 construct: extracellular domain; also called cynoCTLA-4; cynoCTLA4
T2 sequence: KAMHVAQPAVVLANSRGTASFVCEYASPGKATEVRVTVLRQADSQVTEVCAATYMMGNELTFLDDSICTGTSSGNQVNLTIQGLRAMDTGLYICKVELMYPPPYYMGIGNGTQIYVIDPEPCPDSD

T3: recombinant human CTLA4 extracellular domain (human, UniProt P16410 36-161)
T3 construct: extracellular domain; also called huCTLA-4
T3 sequence (looked up): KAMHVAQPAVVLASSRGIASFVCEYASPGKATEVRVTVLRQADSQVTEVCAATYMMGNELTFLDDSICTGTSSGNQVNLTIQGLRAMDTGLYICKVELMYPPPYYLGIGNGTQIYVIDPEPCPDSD

T4: cynomolgus CTLA4 expressed on the cell surface of CHO cells (cynomolgus, UniProt G7PL88 36-223)
T4 construct: whole, on cells; also called CHO-cynoCTLA4
T4 sequence: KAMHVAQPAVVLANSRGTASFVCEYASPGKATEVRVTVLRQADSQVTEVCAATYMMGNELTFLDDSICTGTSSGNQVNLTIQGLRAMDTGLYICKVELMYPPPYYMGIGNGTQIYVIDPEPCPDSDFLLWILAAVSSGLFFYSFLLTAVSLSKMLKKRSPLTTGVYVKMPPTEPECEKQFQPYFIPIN


How the values were obtained:
[1] = molecular target: T1, human CTLA4 expressed on the cell …; experiment: FACS competition on CHO-huCTLA4: antibody titrated against a fixed concentration of hB7-1 (hCD80), bound hB7-1 detected, % competition, plateau about 97 %; pH 6.0 per the text; unit from the axis CTLA4 Ab concentration Log(ng/mL)
[2] = molecular target: T2, recombinant cynomolgus CTLA4 …; experiment: ELISA, immobilised cynoCTLA-4, pH 6.0, mean +/- SD; ELISA, pH 6.0, mean of the two runs
[3] = molecular target: T3, recombinant human CTLA4 extracellular …; experiment: SPR, human CTLA4 ECD immobilised, pH 7.4, run 2
Experimental: (§1) The CTLA4 extracellular domain (human or cynomolgus) was immobilized on the surface of a sensor chip. […] The binding kinetics were calculated using a 1:1 Longmuir model built into the analysis software.

[4] = molecular target: T3, recombinant human CTLA4 extracellular …; experiment: SPR, human CTLA4 ECD immobilised
Experimental: as §1

[5] = molecular target: T2, recombinant cynomolgus CTLA4 …; experiment: ELISA, immobilised cynoCTLA-4, pH 6.0, Jun. 27, 2017; ELISA, pH 6.0, Jun. 27, 2017
[6] = molecular target: T3, recombinant human CTLA4 extracellular …; experiment: SPR, human CTLA4 ECD immobilised, pH 6.0, run 2
Experimental: as §1

[7] = molecular target: T1, human CTLA4 expressed on the cell …; experiment: FACS competition on CHO-huCTLA4: antibody titrated against a fixed concentration of hB7-2 (hCD86), bound hB7-2 detected, % competition, plateaus about 48 to 57 %; pH 6.0 per the text; unit from the axis CTLA4 Ab concentration Log(ng/mL)
[8] = molecular target: T3, recombinant human CTLA4 extracellular …; experiment: ELISA, immobilised huCTLA-4, pH 6.0, Jun. 29, 2017
Experimental: (§2) EC₅₀ values at pH 6.0 for binding to human CTLA4 were calculated using the nonlinear fit model (variable slope, four parameters) of GraphPad Prism version 7.03.

[9] = molecular target: T4, cynomolgus CTLA4 expressed on the cell …; experiment: FACS on CHO-cynoCTLA4 cells, pH 6.0, mean
Experimental: (§3) The amount of antibodies bound on the cells was quantified using anti-human IgG antibody conjugated to fluorophores. EC₅₀ values at pH 6.0 and 7.4 for binding to cells were calculated using the nonlinear fit (variable slope, four parameters) model built into GraphPad Prism software (version 7.03). The expression levels of human CTLA4 or cynomolgus CTLA4 on the surface of the CHO cells were determined using a BD QuantiBRITE™ PE kit.

[10] = molecular target: T4, cynomolgus CTLA4 expressed on the cell …; experiment: FACS, CHO cells expressing cynomolgus CTLA4 (CHO-cynoCTLA-4), pH 6.0, MFI; no unit in the table, unit from the axis Log Antibodies [ng/ml]
Experimental: as §3
(§4) At least two independent duplicate FACS experiments were performed for each antibody using each of the cell lines. The binding activities at different concentrations of the antibodies are plotted in these figures.

[11] = molecular target: T1, human CTLA4 expressed on the cell …; experiment: FACS on CHO-huCTLA4 cells, pH 6.0, mean
Experimental: as §3

[12] = molecular target: T3, recombinant human CTLA4 extracellular …; experiment: ELISA, immobilised huCTLA-4, pH 6.0, Jul. 11, 2017
Experimental: as §2

[13] = molecular target: T3, recombinant human CTLA4 extracellular …; experiment: ELISA, immobilised huCTLA-4, pH 6.0, mean +/- SD
Experimental: as §2

[14] = molecular target: T1, human CTLA4 expressed on the cell …; experiment: FACS, CHO cells expressing human CTLA4 (CHO-huCTLA-4), pH 6.0, MFI; no unit in the table, unit from the axis Log Antibodies [ng/ml]
Experimental: as §3, §4

[15] = molecular target: T2, recombinant cynomolgus CTLA4 …; experiment: ELISA, immobilised cynoCTLA-4, pH 6.0, Jun. 19, 2017; ELISA, pH 6.0, Jun. 19, 2017

EC50 [1] | EC50 [2] | Kd [3] | koff [3] | kon [3] | factor by which the binding activity drops from pH 6.0 to pH 7.4 [4] | EC50 [5] | Kd [6] | koff [6] | kon [6] | EC50 [7] | EC50 [8] | EC50 [9] | EC50 [10] | EC50 [11] | EC50 [12] | EC50 [13] | EC50 [14] | EC50 [15] | Binder
0.745 µg/mL | 0.0276 µg/mL | 0.781 nM | 0.000669 s⁻¹ | 857000 M⁻¹ s⁻¹ | ~2 fold | 0.0397 µg/mL | 0.481 nM | 0.000604 s⁻¹ | 1.26e+06 M⁻¹ s⁻¹ | 0.592 µg/mL | 0.00659 µg/mL | 0.316 µg/mL | 0.242 µg/mL | 0.35 µg/mL | 0.00835 µg/mL | 0.00818 µg/mL | 0.247 µg/mL | 0.0159 µg/mL | BA-087-05-19 (antibody, V domains shown, Detected with anti-human IgG and a molecular weight of 146 kDa was used in SPR, so it was tested as a whole IgG; also called BA-087-05-019; BA-087-05-19 (# 6972)) VH: EVQLVESGGGLVQPGGSLRLSCAASGFTFSHYTMHWVRQAPGKGLEWVSFISYDGNNKYYADSVKGRFTISRDNSKNTLYLQMNSLRAEDTAVYYCARTGWLGPFDYWGQGTLVTVSS VL: AIQLTQSPSSLSASVGDRVTITCRASQYVGSSYLAWYLQKPGQSPQLLIYGAFSRATGIPARFSGSGSGTEFTLTISSLQSEDFAVYYCQQDGSSPWTFGQGTKVEIK
0.567 µg/mL | 0.276 µg/mL | 14.9 nM | – | – | ~100 fold | 0.292 µg/mL | 0.463 nM | 0.00154 s⁻¹ | 3.32e+06 M⁻¹ s⁻¹ | 0.456 µg/mL | 0.00857 µg/mL | 0.403 µg/mL | 0.354 µg/mL | 0.243 µg/mL | 0.00617 µg/mL | 0.00978 µg/mL | 0.168 µg/mL | 0.259 µg/mL | BA-087-08-32 (antibody, V domains shown, Detected with anti-human IgG and a molecular weight of 146 kDa was used in SPR, so it was tested as a whole IgG; also called BA-087-08-032; BA-087-08-32 (# 6978)) VH: EVQLVQSGAEVKKPGATVKISCKVSGFTFSHYTMHWIRQSPSRGLEWLGFISYDGNYKYYADSVKGRFTISRDNAKNSLYLQMNSLRAEDTAVYYCARTGWLGPFDYWGQGTLVTVSS VL: EIVMTQSPATLSVSPGERATLSCRASQSVGSSYLAWYQQKPGKAPKLLIYGAFSRATGVPSRFSGSGSGTDFTLTISSLQPEDFATYYCQQDGSSPWTFGQGTKVEIK
